Test results from patent US11866760B2, “Microorganisms for the production of insect pheromones and related compounds” (Provivi, Inc., priority 2017, dated 2024).
Numbering of substitutions follows the chain as printed. Numbers in names are those of the source.

What was measured:
methyl palmitate = assay: HaFAR mutant library cultivation in 24 well plates in Y. lipolytica SPV603; format: cell-based, Yarrowia lipolytica; conditions: second FAR copy in SPV603, 24 well plates
Method: Four individual clones of positive integrants were tested. Cultivation was performed in 24 well plates. Briefly, 2 mL YPD was inoculated from patches of individual clones and incubated for 24 h at 28° C., 1000 rpm. After 24 h OD600 was measured and the cells were centrifuged at 1000 rpm (Table 23). The cell pellets were resuspended in 1 mL S2 media and 10 g/L methyl palmitate was added. The cells were incubated for 18 h at 28° C., 1000 rpm. Cultivations were stored at −20° C. until analyzed. Extraction and analysis was performed according to previously established standard protocols using GC-FID.
In a first round four individual isolate from each transformation was tested. Cultivation was performed in 24 well plates. 2 mL YPD was inoculated from patches of individual clones and incubated for 24 h at 28° C., 1000 rpm. After 24 h OD600 was measured and the cells were centrifuged at 1000 rpm. The cell pellets were resuspended in 1 mL S2 media and 10 g/L methyl palmitate was added. The cells were incubated for 24 h at 28° C., 1000 rpm. Cultivations were stored at −20° C. until analyzed. Next, four clones of the best performing positive integrant were tested. Cultivation was performed in 24 well plates. 2 mL YPD was inoculated from patches of individual clones and incubated for ˜28 h at 28° C., 1000 rpm. After 28 h OD600 was measured and the cells were centrifuged at 1000 rpm. The cell pellets were resuspended in 1 mL S2 media and 10 g/L methyl palmitate was added. The cells were incubated for 18 h at 28° C., 1000 rpm. Cultivations were stored at −20° C. until analyzed.
Cell pellets were resuspended with 500 μL 5% NaOH (in methanol) then heated for 1 hour at 85° C. Samples were cooled down and then acidified by adding 400 μL 5N HCl. Next, 500 μL chloroform (containing 1 mM C17:0 heptadecanoate internal standard) were added to samples. Samples were mixed vigorously then spun down for 2 minutes at 13,000 RPM using a table top centrifuge. 450 μL chloroform were transferred to a new vial then evaporated at 85° C. for ˜15 minutes. Samples were then resuspended in 50 μL BSTFA (and were now ready for GC analysis). After analysis of the fatty alcohols samples were diluted ˜1:10 and rerun on the GC to improve peak separation of the fatty acid peaks.
All quantifications were based on the concentration of the internal standard. The concentration of the internal standard C17ME is 1 mM. The final concentration of fatty alcohols as well as fatty acids were calculated based on the effective carbon number compared to the internal standard.

S. cerevisiae ΔOLE1 = assay: ΔOLE1 growth complementation assay without UFA; format: cell-based, Saccharomyces cerevisiae
Description: S. cerevisiae ΔOLE1 (MATA OLE1::LEU2 ura3-52 his4) was used as an expression host. A synthetic expression cassette termed pOLE1 (FIG. 10, SEQ ID NO: 4) which comprises the OLE1 promoter region (SEQ ID NOs: 5 and 6), nucleotides encoding for 27 N-terminal amino acids of the OLE1 leader sequence (SEQ ID NO: 7), and a VPS13 terminator sequence (SEQ ID NO: 8) was created, and cloned into pESC-URA vector in between SacI and EcoRI sites. To test the functionality of the pOLE1 cassette, Dasher GFP synthon was inserted in between SpeI and NotI sites to create pOLE1-GFP plasmid. Competent ΔOLE1 was transformed with pOLE1-GFP, and plated on CM-Ura glucose agar plate (Teknova) containing UFA (20 mm CM-URA glucose agar plate was coated with 100 μL CM-Ura glucose medium containing 1% tergitol, and 3 μL palmitoleic acid). […] Validation of ΔOLE1 complementation was performed by restoring OLE1 activity. Specifically, native S. cerevisiae OLE1 synthon was inserted into pOLE1 cassette devoid of the leader sequence to create pOLE1-OLE1 plasmid. After transformation of ΔOLE1, and selection on CM-Ura glucose agar containing UFA, single colonies were patched onto YPD and CM-Ura glucose without UFA. After incubation at 30° C. for 5 days, growth was observed (FIG. 11A-FIG. 11E). As expected, Dasher GFP expression could not complement ΔOLE1 growth without UFA (FIG. 11A-FIG. 11E). DNA sequences which encode for desaturase variants were synthesized (to include nucleotide changes which remove restriction sites used for cloning purposes), and cloned into pOLE1 using SpeI-NotI sites (Genscript, SEQ ID NOs: 9-13). Complementation assay of ΔOLE1 with insect desaturases were performed in the same way as with OLE1 desaturase.

palmitic acid = assay: in vivo bioconversion assay of desaturases in C. tropicalis SPV053; format: cell-based, Candida tropicalis
Method: Functional expression of the heterologous desaturases was characterized by a series of in vivo bioconversion experiments. C. tropicalis SPV053 derived stains expressing insect desaturases were cultured in rich (YPD) or defined (CM glucose) media supplemented with ethanol (for induction) and saturated acid substrates (palmitic acid, methyl palmitate, methyl myristate). Small scale (2 ml) cultures were cultivated for a total of 72 hours in 24 deep well plates with substrate added after the initial 24 hours.
Positive isolates were re-patched onto YPD+300 μg/ml Zeocin and grown overnight and then stored at 4° C. Strains were inoculated from patch plates into 2 ml of YPD in 24 deep well plates (square well, pyramid bottom). Three positive clones were inoculated for each desaturase variant and the mCherry expressing control strain. Deep well plates were incubated at 30° C., 1000 rpm, and 80% humidity in the Infors HT Multitron Pro plate shaker for 24 hrs. After 24 hrs of incubation, cultures were split into equal 1 ml volumes to make two sets of identical plates. Both sets of plates were pelleted by centrifugation at 500×g. One set of plates was resuspended in 2 ml of YPD+0.3% (v/v) ethanol and the second set was resuspended in 2 ml of CM glucose+0.3% ethanol. Ethanol was added at this stage to induce recombinant enzyme expression from the ICL promoter. Cultures were incubated for another 24 hours under the same conditions before 300 mg/L palmitic acid was added to cultures from a 90 g/L stock solution in ethanol. The result was the addition of a fresh 0.3% ethanol in conjunction with the palmitic acid. A subset of strains was also cultured without palmitic acid addition. These cultures had 0.3% ethanol added instead. All cultures were incubated for an additional 24 hrs before a final addition of 0.3% ethanol. After another 24 hr period of incubation, 1.5 ml of each culture was harvested in 1.7 ml microcentrifuge tubes and pelleted. Supernatant was saved in fresh tubes and pellets were processed as described below. A subset of supernatant samples was also extracted to look for free acid in the extracellular medium.
The mCherry control and confirmed positive variants were rescreened using both palmitic acid and methyl palmitate as substrates. The culturing was conducted as described above with equimolar (1.17 mM) amounts of substrate added from ethanol stock solutions (methyl palmitate 94 g/L stock, 313 mg/L final concentration). The same protocol was also repeated with the full panel of strains using an 84 g/L stock of methyl myristate (C14:0). The final concentration of substrate was again 1.17 mM.
The in vivo bioconversion assay was scaled up for confirmation of (Z)-11-hexadecenoic acid synthesis. 2 ml YPD seed cultures of strains SPV0302, SPV0303, and SPV0304 (mCherry), […], SPV0305, and SPV0306 (A. transitella Z11 desaturase), and SPV0307, SPV0308, and SPV0309 (H. zea Z11 desaturase) were grown overnight at 30° C., 1000 rpm, 80% humidity in the Infors HT Multitron plate shaker. 200 μl of overnight culture from each of the three clonal isolates was pooled and inoculated into a single 125 ml baffled flask containing 20 ml YPD. The resulting three flasks were grown for 24 hrs at 30° C. and 250 rpm (Infors Flask shaker). Cultures were pelleted by centrifugation at 500×g and resuspended in 20 ml of YPD+0.3% (v/v) ethanol and returned to 125 ml baffled shake flasks. Cultures were incubated for an additional 24 hours before addition of 300 mg/L palmitic acid in a 90 g/L stock in ethanol (221 μl per flask). After 24 hours of incubation another 0.3% (v/v) ethanol (221 μl) was added to each flask for sustained induction. Flasks were incubated for an additional 24 hours before cells were harvested for FAME analysis and DMDS derivatization.
Total lipid composition as well as the (Z)-11-hexadecenoic acid quantification was based on modified procedures by Moss et al. (1982) and Yousuf et al (2010). […]

[1] = SPV053, supplementation not stated

B1: HaFAR (S60A) (protein)
chain: MVVLTSKETKPSVAEFYAGKSVFITGGTGFLGKVFIEKLLYSCPDIENIYMLIREKKGLAVSERIKQFLDDPLFTRLKDKRPADLEKIVLIPGDITAPDLGINSENEKMLIEKVSVIIHSAATVKFNEPLPTAWKINVEGTRMMLALSRRMKRIEVFIHISTAYTNTNREVVDEILYPAPADIDQVHQYVKDGISEEDTEKILNGRPNTYTFTKALTEHLVAENQAYVPTIIVRPSVVAAIKDEPLKGWLGNWFGATGLTVFTAKGLNRVIYGHSSYIVDLIPVDYVANLVIAAGAKSSKSTELKVYNCCSSSCNPVTIGTLMSMFADDAIKQKSYAMPLPGWYIFTKYKWLVLLLTFLFQVIPAYVTDLSRHLIGKSPRYIKLQSLVNQTRSSIDFFTNHSWVMKADRVRELYASLSPADKYLFPCDPTDINWTHYIQDYCWGVRHFLEKKSYE
Q: Which “Z11-16OH titers compared to the HaFAR double copy strain” value (methyl palmitate) does the source give for B1 here?
A: neutral or showed slight increases

B2: HaFAR (S298A) (protein)
chain: B1 chain with A60S, S298A
Q: B2 was tested. Which “Z11-16OH titers compared to the HaFAR double copy strain” value (methyl palmitate) did it give?
A: neutral or showed slight increases

B3: HaFAR (S453A) (protein)
chain: B1 chain with A60S, S453A
Q: How did the “Z11-16OH titers compared to the HaFAR double copy strain” value (methyl palmitate) turn out when B3 was run?
A: neutral or showed slight increases

B4: A. transitella desaturase: Amyelois transitella Z11 desaturase (JX964774) (protein, listed as Amyelois transitella)
chain: MVPNKGSSDVLSEHSEPQFTKLIAPQAGPRKYKIVYRNLLTFGYWHLSAVYGLYLCFTCAKWATILFAFFLYVIAEIGITGGAHRLWAHRTYKAKLPLEILLLIMNSIAFQDTAFTWARDHRLHHKYSDTDADPHNATRGFFYSHVGWLLVKKHPEVKARGKYLSLDDLKNNPLLKFQKKYAILVIGTLCFLMPTFVPVYFWGEGISTAWNINLLRYVMNLNMTFLVNSAAHIFGNKPYDKSIASVQNISVSLATFGEGFHNYHHTYPWDYRAAELGNNRLNMTTAFIDFFAWIGWAYDLKSVPQEAIAKRCAKTGDGTDMWGRKR
Q: Which “rescue of ΔOLE1 growth without UFA” value (S. cerevisiae ΔOLE1; minimal medium (CM-Ura glucose) agar plate) does the source give for B4 here?
A: conferred growth without UFA

Q: What about the “rescue of ΔOLE1 growth without UFA” value (S. cerevisiae ΔOLE1; rich medium (YPD) agar plate) of the same molecule?
A: conferred growth without UFA

Q: And the “(Z)-11-hexadecenoic acid titer” value (palmitic acid; SPV053)?
A: approximately 5.62 mg/L

Q: And the “activity on myristoyl-CoA” value (palmitic acid; SPV053, methyl myristate substrate)?
A: some activity on myristoyl-CoA

Q: And the “(Z)-9-hexadecenoic acid in C16-fatty acid composition” value (palmitic acid; [1])?
A: 14.5%

Q: And the “(Z)-11-hexadecenoic acid in C16-fatty acid composition” value (palmitic acid; [1])?
A: 30.0%

Q: And the “hexadecanoic acid in C16-fatty acid composition” value (palmitic acid; [1])?
A: 55.5%
